In PMC5158307, “Substrate specificity characterization for eight putative nudix hydrolases. Evaluation of criteria for substrate identification within the Nudix family” (Proteins, 2016) one finds Km, kcat and kcat/Km data, which are given here for 1 protein.

What all share (experiment): purified protein
Common to all, as to settings: pH 7.6, 37 °C, 1 mM MgCl2, 10 mM Tris-HCl

Substrate in data set [1]: Nc1nc(=O)n([C@H]2C[C@H](O)[C@@H](COP(=O)(O)OP(=O)(O)OP(=O)(O)O)O2)cc1O
From the text: (§1) Pi-sensor (MDCC-PBP) fluorescence, PPase coupled on Q5LBB1_BACFN
Substrate in data set [2]: Cc1cn([C@@H]2O[C@H](COP(=O)(O)OP(=O)(O)OP(=O)(O)O)[C@@H](O)[C@H]2O)c(=O)nc1N
From the text: as §1
Substrate in data set [3]: Nc1nc(=O)n([C@H]2C[C@H](O)[C@@H](COP(=O)(O)OP(=O)(O)OP(=O)(O)O)O2)cc1CO
From the text: as §1
Substrate in data set [4]: Cc1cn([C@H]2C[C@H](O)[C@@H](COP(=O)(O)OP(=O)(O)OP(=O)(O)O)O2)c(=O)nc1N
From the text: as §1

B1: Q5LBB1_BACFN (Bacteroides fragilis NCTC 9343) (protein)
chain: MKSIEVVAAVIRLGEKYLCVQRGQTKFSYTSFRYEFPGGKVEEGESLQEALQREIMEEMDYVIEVGEKLLTVHHTYPDFEITMHAFLCHPVGQRYVLKEHIAAQWLSTREMAILDWAEADKPIVRKISEQ
For B1, the Km in “purified protein [1]” is 9.2 ± 2.8 µM; in the data set “purified protein [2]”, 2.5 ± 1.2 µM; in the data set “purified protein [3]” it was 10 ± 5 µM; in “purified protein [4]” it was 3.0 ± 0.8 µM. Moreover, the kcat in “purified protein [1]” came to 0.78 ± 0.11 s⁻¹; in “purified protein [2]”, 16 ± 3 s⁻¹; in the data set “purified protein [3]”, 45 ± 11 s⁻¹; in “purified protein [4]”, 14 ± 1 s⁻¹. Also, the kcat/Km was 85000 ± 14000 M⁻¹ s⁻¹ in the data set “purified protein [1]”, 6.7e+06 ± 2.4e+06 M⁻¹ s⁻¹ in the data set “purified protein [2]”, 4.4e+06 ± 1e+06 M⁻¹ s⁻¹ in “purified protein [3]” and 4.8e+06 ± 1e+06 M⁻¹ s⁻¹ in “purified protein [4]”.

In general, Km refers to the substrate concentration at which the rate is half of its maximum. As a reminder, the kcat is the number of substrate molecules converted per active site and unit of time at saturation. A word on the kcat/Km: it is the second-order rate constant that governs catalysis at low substrate concentration.
